± gives the standard deviation of the averaged measurements.
B1: library; a variant is named by its letters at X, in order (parent)
chain: MNIQIGELAKRTACPVVTIRFYEQEGLLPPPGRSRGNFRLYGEEHVERLQFIRHCRSLDMPLSXVRTLLSYRKRPDQDCGEVXMLLDEHXRQVESRIGALLELXHXLVELREACSGARPAQSCGILQGLSDCVCDTRGTTAHXSD

Experiments:
[1] = variants of: B1; assay: sfGFP reporter fluorescence (15 h) (µM FITC); higher = higher leak; settings: library round: Round 3b; ligand: none
Method: (§1)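 Cell-free biosensing: 1 µL Echo-assembled CFE reactions with linear PbrR variant templates (5 nM) and pPbrR-sfGFP reporter, with 1 µM Pb, 30 µM Zn or no ligand; endpoint sfGFP fluorescence after 15 h at 30 °C calibrated as µM FITC. Round 3b rational combinatorial PbrR mutants; 3 biological replicates.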

[2] = variants of: B1; assay: sfGFP reporter fluorescence (15 h) (µM FITC); higher = stronger transcriptional activation; settings: library round: Round 3b
Method: as §1

Variant	sfGFP reporter fluorescence [1]	sfGFP reporter fluorescence ([2]; ligand: 1 µM Pb)	sfGFP reporter fluorescence ([2]; ligand: 30 µM Zn)
KIITAP	0.0473 ± 0.0044	0.308 ± 0.022	0.051 ± 0.005
KIITAT	0.0466 ± 0.0011	0.39 ± 0.032	0.05466 ± 0.00019
DNAVET	0.0438 ± 0.0014	0.0536 ± 0.0031	0.0603 ± 0.0036
DNAVER	0.0468 ± 0.0035	0.0511 ± 0.0015	0.062 ± 0.0046
KNAKER	0.0626 ± 0.0049	0.296 ± 0.036	0.621 ± 0.066
KNAKET	0.0595 ± 0.0029	0.248 ± 0.0068	0.569 ± 0.068
DIITAT	0.0431 ± 0.0041	0.0634 ± 0.005	0.0426 ± 0.0034
DIITAR	0.0463 ± 0.0055	0.0691 ± 0.0046	0.0465 ± 0.0022
KIAVAT	0.0607 ± 0.0022	1.25 ± 0.024	0.0576 ± 0.0032
KNITAR	0.0701 ± 0.0068	0.379 ± 0.032	1.07 ± 0.19
KNITAT	0.0655 ± 0.0027	0.358 ± 0.021	0.972 ± 0.077
KNIVET	0.112 ± 0.0075	0.514 ± 0.055	1.2 ± 0.06
KNIVER	0.115 ± 0.006	0.585 ± 0.046	1.4 ± 0.2
KNITET	0.0629 ± 0.0071	0.318 ± 0.015	0.944 ± 0.15
KNITER	0.0631 ± 0.0055	0.311 ± 0.029	0.926 ± 0.12
DIITET	0.0436 ± 0.0034	0.0535 ± 0.002	0.047 ± 0.0035
DIITER	0.0474 ± 0.0038	0.0576 ± 0.0022	0.0446 ± 0.0022
KNAVAT	0.045 ± 0.0035	0.155 ± 0.0086	0.237 ± 0.018
KNAVAR	0.0498 ± 0.001	0.195 ± 0.018	0.309 ± 0.028
KNAVAP	0.0482 ± 0.0035	0.142 ± 0.0073	0.214 ± 0.025
KIIVEP	0.0554 ± 0.0036	0.372 ± 0.031	0.0556 ± 0.0028
KIIVET	0.0535 ± 0.0022	0.346 ± 0.015	0.0557 ± 0.0014

— the supplement of paper PMC12783771
